{
  "source": "paper PMC10361524",
  "key": {"IL-20R2D (human), Q6UXL0 [1]": {"molecular_target": "IL-20R2D (human), Q6UXL0", "experiment": "MST; IL-20R2D variants labelled with RED-tris-NTA dye on the His tag, held constant at 50 nM; unlabelled IL-24B4 titrated; 50 mM Tris pH 8, 100 mM NaCl, 0.02% pluronic F127; not irradiated"}, "[2]": {"molecular_target": "T1, IL-20R2D Y70NBY/Y74NBY (human), Q6UXL0", "T1 chain": "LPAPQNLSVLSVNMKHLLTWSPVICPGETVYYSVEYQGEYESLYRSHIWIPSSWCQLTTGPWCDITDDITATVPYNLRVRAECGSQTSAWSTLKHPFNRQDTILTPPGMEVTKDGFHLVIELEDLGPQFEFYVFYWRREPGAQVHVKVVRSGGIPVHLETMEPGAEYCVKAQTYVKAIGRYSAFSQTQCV", "experiment": "MST; IL-20R2D variants labelled with RED-tris-NTA dye on the His tag, held constant at 50 nM; unlabelled IL-24B4 titrated; 50 mM Tris pH 8, 100 mM NaCl, 0.02% pluronic F127; not irradiated"}, "[3]": {"molecular_target": "T2, IL-20R2D Y70NBY (human), Q6UXL0", "T2 chain": "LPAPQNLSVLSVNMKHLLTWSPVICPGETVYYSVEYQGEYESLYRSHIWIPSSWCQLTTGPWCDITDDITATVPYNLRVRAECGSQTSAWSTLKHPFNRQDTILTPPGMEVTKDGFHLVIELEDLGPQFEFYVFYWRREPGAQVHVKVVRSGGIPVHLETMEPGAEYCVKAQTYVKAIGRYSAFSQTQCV", "experiment": "MST; IL-20R2D variants labelled with RED-tris-NTA dye on the His tag, held constant at 50 nM; unlabelled IL-24B4 titrated; 50 mM Tris pH 8, 100 mM NaCl, 0.02% pluronic F127; not irradiated"}, "[4]": {"molecular_target": "T3, IL-20R2D Y74NBY (human), Q6UXL0", "T3 chain": "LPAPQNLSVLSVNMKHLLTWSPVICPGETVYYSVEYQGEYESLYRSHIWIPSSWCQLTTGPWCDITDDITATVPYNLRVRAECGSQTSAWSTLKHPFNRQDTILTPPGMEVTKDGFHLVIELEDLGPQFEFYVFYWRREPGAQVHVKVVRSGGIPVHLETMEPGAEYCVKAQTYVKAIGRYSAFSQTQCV", "experiment": "MST; IL-20R2D variants labelled with RED-tris-NTA dye on the His tag, held constant at 50 nM; unlabelled IL-24B4 titrated; 50 mM Tris pH 8, 100 mM NaCl, 0.02% pluronic F127; not irradiated"}, "IL-20R2D (human), Q6UXL0 [5]": {"molecular_target": "IL-20R2D (human), Q6UXL0", "experiment": "MST; as a1, but the IL-20R2D variant irradiated at 365 nm (100 mW, 5 min) before use"}, "[6]": {"molecular_target": "IL-20R2D Y70NBY + UV (human), Q6UXL0", "experiment": "MST; as a1, but the IL-20R2D variant irradiated at 365 nm (100 mW, 5 min) before use"}, "IL-20R2D (human), Q6UXL0 [7]": {"molecular_target": "IL-20R2D (human), Q6UXL0", "experiment": "MST; IL-20R2D variants labelled with RED-tris-NTA dye on the His tag, held constant at 50 nM; unlabelled IL-24B4 titrated; 50 mM Tris pH 8, 100 mM NaCl, 0.02% pluronic F127; not irradiated", "remark": "listed apart in the source"}, "[8]": {"molecular_target": "T4, IL-24B4 displayed on the yeast surface (version with an N-terminal linker of 17 amino acids, fused to a fluorescent protein) (human)", "T4 sequence (main, as listed by the source)": "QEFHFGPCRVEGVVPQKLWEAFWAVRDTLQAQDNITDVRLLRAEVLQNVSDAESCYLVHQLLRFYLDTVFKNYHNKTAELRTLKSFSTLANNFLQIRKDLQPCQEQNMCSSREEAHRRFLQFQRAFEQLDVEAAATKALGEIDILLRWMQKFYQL", "experiment": "flow cytometry on cells; yeast surface display of IL-24B4 (suspension enriched with 0.5% IL-24S yeast); CF640R-labelled IL-20R2D variants at 500, 100, 20, 4 and 0.1 nM in PBSB with 10 nM bilirubin, overnight at 4°C; apparent Kd (affinity and avidity); not irradiated"}, "[9]": {"molecular_target": "T4, IL-24B4 displayed on the yeast surface …", "experiment": "flow cytometry on cells; as a3, but the labelled IL-20R2D variant UV irradiated (365 nm); apparent Kd"}},
  "data": [
    {"binder": "IL-24B4 (SUMO-cleaved, C-terminal Strep-tag), Q13007 52-206 (ligand, here or on the partner: designed disulfide Cys59-Cys117 (UniProt numbering)) FHFGPCRVEGVVPQELWEAFWAVRDTLQAQDNITDVRLLRAEVLQNVSDAESCYLVHQLLRFYLDTVFKNYHNKTAELRTLKSFSTLANNFVLIVSDLQPCQEQNMCSSREEAHRRFLQFQRAFEQLDVEAAATKALGEIDILLTWMQKFYQL", "values": [
      {"measurement": "Kd", "setting": "IL-20R2D (human), Q6UXL0 [1]", "value": 630, "unit": "nM"},
      {"measurement": "Kd", "setting": "[2]", "value": 570, "unit": "nM"},
      {"measurement": "Kd", "setting": "[3]", "value": "> 94", "unit": "µM"},
      {"measurement": "Kd", "setting": "[4]", "value": 430, "unit": "nM"},
      {"measurement": "Kd", "setting": "IL-20R2D (human), Q6UXL0 [5]", "value": 3.7, "unit": "µM"},
      {"measurement": "Kd", "setting": "[6]", "value": 3.3, "unit": "µM"},
      {"measurement": "Kd", "setting": "IL-20R2D (human), Q6UXL0 [7]", "value": 500, "unit": "nM"}
    ]},
    {"binder": "IL-20R2D Y70NBY, Q6UXL0 30-233 (receptor, here or on the partner: ortho-nitrobenzyl-tyrosine (NBY) at 70) LPAPQNLSVLSVNMKHLLTWSPVICPGETVYYSVEYQGEYESLYRSHIWIPSSWCQLTTGPWCDITDDITATVPYNLRVRAECGSQTSAWSTLKHPFNRQDTILTPPGMEVTKDGFHLVIELEDLGPQFEFYVFYWRREPGAQVHVKVVRSGGIPVHLETMEPGAEYCVKAQTYVKAIGRYSAFSQTQCV", "values": [
      {"measurement": "Kd", "setting": "[8]", "value": 2000, "unit": "nM"}
    ]},
    {"binder": "IL-20R2D, Q6UXL0 30-233 (receptor, here or on the partner: designed disulfide Cys59-Cys117 (UniProt numbering)) LPAPQNLSVLSVNMKHLLTWSPVICPGETVYYSVEYQGEYESLYRSHIWIPSSWCQLTTGPWCDITDDITATVPYNLRVRAECGSQTSAWSTLKHPFNRQDTILTPPGMEVTKDGFHLVIELEDLGPQFEFYVFYWRREPGAQVHVKVVRSGGIPVHLETMEPGAEYCVKAQTYVKAIGRYSAFSQTQCV", "values": [
      {"measurement": "Kd", "setting": "[9]", "value": 9.6, "unit": "nM"},
      {"measurement": "Kd", "setting": "[8]", "value": 5, "unit": "nM"}
    ]},
    {"binder": "IL-20R2D Y70NBY + UV, Q6UXL0 30-233 (receptor, here or on the partner: UV-decaged, Tyr70 restored to canonical tyrosine; designed disulfide Cys59-Cys117) LPAPQNLSVLSVNMKHLLTWSPVICPGETVYYSVEYQGEYESLYRSHIWIPSSWCQLTTGPWCDITDDITATVPYNLRVRAECGSQTSAWSTLKHPFNRQDTILTPPGMEVTKDGFHLVIELEDLGPQFEFYVFYWRREPGAQVHVKVVRSGGIPVHLETMEPGAEYCVKAQTYVKAIGRYSAFSQTQCV", "values": [
      {"measurement": "Kd", "setting": "[9]", "value": 7.6, "unit": "nM"}
    ]}
  ]
}
